Several values for one entry are separate records, joined by “and”; a condition that tells them apart may be missing. Identical values can stand only once.
Assays:
[1] = molecular target: Chlamy HAP2 (Chlamydomonas reinhardtii HAP2), purified monomer (Chlamydomonas reinhardtii); test: negative-stain EM; Chlamy HAP2 at pH 7.5 with 0.1% β-DDM, 2 h, 23 °C, gel filtered; 2D class averages
[2] = molecular target: Chlamy HAP2 (Chlamydomonas reinhardtii HAP2), purified monomer (Chlamydomonas reinhardtii); test: negative-stain EM; Chlamy HAP2 at pH 7.5 with 0.1% β-DDM, 26 h, 23 °C, gel filtered; 2D class averages
[3] = molecular target: Cyani HAP2 D1D2 (residues 28–457) (Cyanidioschyzon merolae); test: negative-stain EM; Cyani HAP2 D1D2 at pH 1.5 in 0.1% β-DDM, 26 h, 37 °C; 2D class averages
[4] = molecular target: Cyani HAP2 D1D2 (residues 28–457) (Cyanidioschyzon merolae); test: negative-stain EM; Cyani HAP2 D1D2 at pH 5.0 in 0.1% β-DDM, 26 h, 37 °C; 2D class averages
[5] = molecular target: Cyani HAP2 ectodomain (aa 28–564), from Drosophila S2 cells (Cyanidioschyzon merolae); test: negative-stain EM; Cyani HAP2 incubated with β-DDM at pH 5.0, 37 °C, 2 h, gel filtered; 2D class averages
[6] = molecular target: Cyani HAP2 ectodomain (aa 28–564), from Drosophila S2 cells (Cyanidioschyzon merolae); test: negative-stain EM; Cyani HAP2 incubated with β-DDM at pH 5.0, 37 °C, 26 h, gel filtered; 2D class averages
[7] = molecular target: Cyani HAP2 ectodomain (aa 28–564), from Drosophila S2 cells (Cyanidioschyzon merolae); test: negative-stain EM; gel filtration peak of Cyani HAP2 treated with β-DDM at pH 2.0, 37 °C; 2D class averages
[8] = molecular target: Cyani HAP2 ectodomain (aa 28–564), from Drosophila S2 cells (Cyanidioschyzon merolae); test: SEC-MALS; Superdex 200 10/300 GL; Cyani HAP2 trimer formed at pH 1.5 with β-DDM; protein conjugate model (glycoprotein and β-DDM components)
[9] = molecular target: Cyani HAP2 ectodomain (aa 28–564), from Drosophila S2 cells (Cyanidioschyzon merolae); test: SEC; incubated with 0.1% β-DDM, 500 mM NaCl at pH 1.5, 2.0, 3.5, 4.3 or 5.0, 37 °C, 26 h; Superdex 200 in buffer of the same pH, 0.01% β-DDM; monomer to trimer
[10] = molecular target: Cyani HAP2 ectodomain (residues 28–564) fusion loop mutant FL2 (L210A, L211A, F213A) (Cyanidioschyzon merolae); test: SEC; WT and mutant ectodomains (16 μM) with nine volumes of citrate buffer pH 3.5, 500 mM NaCl, 0.1% DDM, 37 °C; running buffer pH 3.5 with 0.01% DDM
[11] = molecular target: Cyani HAP2 ectodomain (residues 28–564) fusion loop mutant FL2 (L210A, L211A, F213A) (Cyanidioschyzon merolae); test: SEC; WT and mutant ectodomains (16 μM) with nine volumes of citrate buffer pH 4.3, 500 mM NaCl, 0.1% DDM, 2 or 4 h at 37 °C; running buffer pH 4.3 with 0.01% DDM
[12] = molecular target: Cyani HAP2 ectodomain (residues 28–564) fusion loop mutant FL3 (W147A, L148A) (Cyanidioschyzon merolae); test: SEC; WT and mutant ectodomains (16 μM) with nine volumes of citrate buffer pH 3.5, 500 mM NaCl, 0.1% DDM, 37 °C; running buffer pH 3.5 with 0.01% DDM
[13] = molecular target: Cyani HAP2 ectodomain (residues 28–564) fusion loop mutant FL3 (W147A, L148A) (Cyanidioschyzon merolae); test: SEC; WT and mutant ectodomains (16 μM) with nine volumes of citrate buffer pH 4.3, 500 mM NaCl, 0.1% DDM, 2 or 4 h at 37 °C; running buffer pH 4.3 with 0.01% DDM
[14] = molecular target: Cyani HAP2 ectodomain (residues 28–564), wild type, from Expi293F cells (Cyanidioschyzon merolae); test: SEC; WT and mutant ectodomains (16 μM) with nine volumes of citrate buffer pH 3.5, 500 mM NaCl, 0.1% DDM, 37 °C; running buffer pH 3.5 with 0.01% DDM
[15] = molecular target: Cyani HAP2 ectodomain (residues 28–564), wild type, from Expi293F cells (Cyanidioschyzon merolae); test: SEC; WT and mutant ectodomains (16 μM) with nine volumes of citrate buffer pH 4.3, 500 mM NaCl, 0.1% DDM, 2 or 4 h at 37 °C; running buffer pH 4.3 with 0.01% DDM
[16] = molecular target: Cyani HAP2 ectodomain (residues 28–564), wild type, from Expi293F cells (Cyanidioschyzon merolae); test: SEC; WT and mutant ectodomains (16 μM) with nine volumes of citrate buffer pH 4.7, 500 mM NaCl, 0.1% DDM; gel filtered immediately or after 2 h at 37 °C in pH 4.7 buffer with 0.01% DDM

In the case of “Chlamy HAP2 (Chlamydomonas reinhardtii HAP2), purified monomer (domain or fragment)”, the stoichiometry N [1] is reported as 2 and 3 and the stoichiometry N [2] is reported as 3 and 6.
With “Cyani HAP2 D1D2 (residues 28–457) (domain or fragment)” the stoichiometry N [3] was 3 and the stoichiometry N [4] was 3 and 2.
With “Cyani HAP2 ectodomain (aa 28–564), from Drosophila S2 cells (domain or fragment)” the stoichiometry N [5] was 2 and 3, the stoichiometry N [6] was 3 and 6 and the stoichiometry N [7] was 3 and 6. For the same substance, the stoichiometry N [8] was 3 and the stoichiometry N [9] was 3.
In the case of “Cyani HAP2 ectodomain (residues 28–564) fusion loop mutant FL2 (L210A, L211A, F213A) (domain or fragment)”, the stoichiometry N [10] is reported as 3 and the stoichiometry N [11] is reported as 3.
“Cyani HAP2 ectodomain (residues 28–564) fusion loop mutant FL3 (W147A, L148A) (domain or fragment)” gave a stoichiometry N [12] of 3 and a stoichiometry N [13] of 3.
“Cyani HAP2 ectodomain (residues 28–564), wild type, from Expi293F cells (domain or fragment)” showed a stoichiometry N [14] of 3, a stoichiometry N [15] of 3 and a stoichiometry N [16] of 3.

Reference: publication PMC9279424
